Values of other authors as cited in article PMC1617126.

Target: protective antigen (PA) (Bacillus anthracis) (UniProt P13423)

ANTXR2 I domain (from UniProt P58335)
Kd: 960 nM
